From the Human Domainome abundance scans (Beltran et al. 2025)

B1: Double-stranded RNA-specific adenosine deaminase, residues 296 to 358; numbered along this chain, P55265 (parent)
chain: MAEIKEKICDYLFNVSDSSALNLAKNIGLTKARDINAVLIDMERQGDVYRQGTTPPIWHLTDK

Variants of: B1
Test: abundance fitness (aPCA) (normalised: wild type 0, dead -1); higher = more abundant; growth selection in yeast, the domain comes from the species named
Settings: Homo sapiens

Abundance fitness of substitutions, site by site:
V48: E -0.23 | C -0.389 | T -0.563 | Y -0.862 | N -0.286 | A -0.284 | W -0.692 | Q -0.743 | P -0.507 | D -0.335 | H -0.574 | F -0.927 | K -0.701 | S -0.585 | I -0.139
R44: A 0.079 | Y -0.614 | H -0.274 | D -0.175 | S -0.173 | M -0.27 | W -0.705 | Q 0.037 | K 0.067 | N -0.056 | E -0.126 | L -0.373 | G -0.334 | C -0.6 | T -0.043 | I -0.26
Y49: V 0.177 | G -0.076 | E 0.259 | R 0.007 | I 0.053 | C 0.078 | W -0.044 | M 0.003 | F -0.167 | N -0.34 | K 0.161 | P -0.519 | S 0.111 | T 0.135 | Q 0.051 | L -0.27 | H -0.074
G52: F -0.901 | A -0.342 | E -0.12 | D -0.105 | C -0.525
N36: Y -0.232 | C -0.397 | D 0.131 | A -0.497 | V -0.428 | M -0.184 | R -0.38 | W -0.154 | T -0.011 | S -0.202 | K -0.098 | G -0.366 | L -0.282 | P -0.49 | E 0.406 | Q -0.156 | F -0.455 | H 0.081 | I -0.438
D47: A -0.117 | Y -0.068 | E 0.35 | Q 0.122 | F -0.177 | K 0.024 | L 0.297 | V 0.288 | W -0.234 | R 0.046 | S -0.114 | G -0.881 | T 0.205 | N -0.322 | H -0.123 | M 0.182 | C -0.096
E43: Y -0.725 | N -0.697 | V -0.873 | R -0.927 | A -0.66 | S -0.841 | P -0.729 | D -0.665 | H -0.798 | T -1.07 | L -0.93 | I -1.13 | Q -0.447 | M -0.848 | G -0.508 | F -0.748
V38: P -0.24 | G -0.128 | Q -0.276 | S -0.316 | E -0.13 | R -0.528 | A 0.343 | K -0.387 | I 0.035 | F -0.952 | C 0.12 | W -0.739 | Y -1.27 | H -0.31 | D -0.254 | M -0.488 | N -0.195 | T -0.11 | L -0.253
M42: T -0.636 | S -0.613 | E -0.22 | C -0.742 | P -0.502 | N -0.412 | F -0.965 | I -1.03 | D -0.551 | Q -0.335 | L -0.369 | R -0.629 | G -0.485 | V -0.774 | K -0.303 | A -0.479 | W -0.795
Q51: H -0.094 | F -0.658 | G -0.215 | T 0.494 | I 0.088 | K 0.053 | S 0.401 | P -0.861 | D 0.22 | E 0.176 | N -0.051 | V 0.208 | C 0.051 | A -0.162 | W -0.407
G46: Y -1.06 | K -0.448 | V -0.613 | I -1.03 | M -0.498 | Q -0.652 | F -1.05 | P -0.778 | S -0.618 | C -0.998 | L -0.974 | T -0.856 | N -0.827 | A -0.844 | W -1.15 | R -0.902 | E -0.66
I35: P -0.257 | S -0.343 | W -1.1 | A -0.326 | C -0.348 | G -0.627 | H -0.556 | T -0.217 | L -0.279 | K -0.323 | Y -0.743 | D -0.225 | Q -0.348 | V -0.034 | M -0.523 | F -0.681
R50: M -0.555 | T -0.406 | A -0.238 | I -0.798 | G -0.453 | N -0.379 | K 0.12 | F -0.601 | S -0.019 | V -0.381 | W -0.722 | Q 0.036 | H -0.274 | D -0.761 | L -0.684 | E -0.392 | Y -0.985
A32: Q -0.034 | I 0.076 | L 0.25 | N -0.232 | K -0.37 | M 0.088 | P -0.162 | V 0.108 | R -0.485 | Y -0.088 | S -0.103 | T -0.018
I40: D -0.093 | P -0.387 | H -0.218 | M 0.122 | F -0.165 | Q 0.159 | S 0.117 | C -0.153 | K -0.025 | T -0.065 | A 0.083 | W -0.388 | N 0.075 | L 0.128 | Y 0.043 | V -0.049 | G -0.265 | R -0.054
A37: N -0.247 | P -0.145 | E -0.024 | T -0.173 | D -0.101 | L -0.392 | R -0.054 | Q -0.11 | M -0.386 | W -0.453 | Y -0.457 | G -0.332 | H 0.039 | S -0.025 | C -0.417
L39: W -0.966 | V -0.589 | D -0.125 | C -0.528 | Q -0.244 | M -0.294 | T -0.461 | F -0.812 | S -0.265 | H -0.44 | K -0.096 | I -0.756 | A -0.148 | Y -0.678 | G -0.176 | P -0.385 | R -0.365 | N -0.393
R33: F 0.19 | P -0.272 | A 0.365 | E 0.564 | D 0.417 | L -0.028 | T 0.263 | I 0.262 | N 0.195 | H 0.094 | S 0.342 | K 0.056 | Y 0.185 | C 0.157 | V 0.327 | G 0.207
D41: P -0.421 | L -0.99 | N -0.514 | F -1.34 | S -0.501 | H -0.754 | R -0.73 | V -1.14 | G -0.348 | M -0.539 | E 0.223 | T -0.445 | W -1.12 | C -0.822 | A -0.315 | Y -1.06
D34: R -0.699 | P -0.541 | Q -0.283 | L -0.444 | G -0.592 | I -0.422 | A -0.243 | C -0.978 | W -0.984 | Y -0.694 | F -0.75 | M -0.333 | S -0.397 | K -0.518 | T -0.724 | H -0.578
Q45: V -0.075 | I -0.495 | S 0.022 | P -0.912 | E 0.022 | R -0.33 | L -0.524 | G -0.778 | H -0.024 | N 0.033 | C -0.053 | D 0.17 | Y -0.637 | A 0.145 | T -0.097 | F -0.729 | K -0.492
